Test results reported in the Immune Epitope Database (IEDB).

How the values were obtained:
HLA-A*26:03 = test: IEDB peptide-MHC binding, purified MHC/direct/fluorescence; filed as Kd, often an IC50 or EC50 that approximates it; ≥ and ≤ were set here for values at or beyond the usual limits of such assays; conditions: source organism: Listeria monocytogenes serotype 4b str. H7858
HLA-A*02:03 = test: IEDB peptide-MHC binding, purified MHC/competitive/fluorescence; filed as Kd, often an IC50 or EC50 that approximates it; ≥ and ≤ were set here for values at or beyond the usual limits of such assays
HLA-A*02:11 = test: as above
HLA-A*02:01 [1] = test: as above; conditions: source organism: Human immunodeficiency virus 1
HLA-A*69:01 [2] = test: as above; conditions: source organism: Human immunodeficiency virus 1
HLA-A*02:19 = test: as above
HLA-A*02:06 = test: as above; conditions: source organism: Human immunodeficiency virus 1
HLA-B*08:01 = test: IEDB peptide-MHC binding, purified MHC/direct/fluorescence; filed as Kd, often an IC50 or EC50 that approximates it; ≥ and ≤ were set here for values at or beyond the usual limits of such assays; conditions: source organism: Variola virus
HLA-B*15:01 [3] = test: as above
HLA-B*08:02 = test: as above; conditions: source organism: Variola virus
HLA-A*02:01 [4] = test: as above
HLA-B*57:01 [5] = test: as above
HLA-A*69:01 [6] = test: as above
HLA-B*07:02 = test: as above
HLA-A*01:01 = test: as above
HLA-A*24:03 = test: as above; conditions: source organism: Camelpox virus M-96
HLA-A*31:01 = test: as above
HLA-B*58:01 = test: as above
HLA-A*68:02 = test: IEDB peptide-MHC binding, purified MHC/competitive/fluorescence; filed as Kd, often an IC50 or EC50 that approximates it; ≥ and ≤ were set here for values at or beyond the usual limits of such assays; conditions: source organism: Taterapox virus
HLA-A*26:02 = test: as above; conditions: source organism: Taterapox virus
HLA-A*11:01 [7] = test: as above
HLA-B*18:01 [8] = test: as above
HLA-B*15:17 [9] = test: as above; conditions: source organism: Taterapox virus
HLA-A*29:02 = test: IEDB peptide-MHC binding, purified MHC/direct/fluorescence; filed as Kd, often an IC50 or EC50 that approximates it; ≥ and ≤ were set here for values at or beyond the usual limits of such assays; conditions: source organism: Yellow fever virus
HLA-B*40:01 = test: as above
HLA-B*44:02 = test: as above; conditions: source organism: Yellow fever virus
HLA-B*48:01 = test: as above
HLA-B*15:09 = test: as above
HLA-B*46:01 [10] = test: as above
HLA-A*11:01 [11] = test: as above; conditions: source organism: Yellow fever virus
HLA-B*18:01 [12] = test: as above; conditions: source organism: Yellow fever virus
HLA-B*27:05 = test: as above
HLA-A*03:01 [13] = test: as above
HLA-C*15:02 = test: as above
HLA-A*24:02 = test: IEDB peptide-MHC binding, purified MHC/competitive/fluorescence; filed as Kd, often an IC50 or EC50 that approximates it; ≥ and ≤ were set here for values at or beyond the usual limits of such assays; conditions: source organism: Escherichia coli B7A
HLA-B*39:01 [14] = test: IEDB peptide-MHC binding, purified MHC/direct/fluorescence; filed as Kd, often an IC50 or EC50 that approximates it; ≥ and ≤ were set here for values at or beyond the usual limits of such assays; conditions: source organism: Variola virus
HLA-B*15:17 [15] = test: as above; conditions: source organism: Camelpox virus CMS
HLA-B*39:01 [16] = test: IEDB peptide-MHC binding, purified MHC/competitive/fluorescence; filed as Kd, often an IC50 or EC50 that approximates it; ≥ and ≤ were set here for values at or beyond the usual limits of such assays; conditions: source organism: Yersinia pestis Nepal516
HLA-B*15:01 [17] = test: as above; conditions: source organism: Yersinia pestis Nepal516
HLA-B*27:03 = test: as above; conditions: source organism: Yersinia pestis Nepal516
HLA-A*26:01 = test: as above; conditions: source organism: Yersinia pestis Nepal516
HLA-A*02:12 = test: as above; conditions: source organism: Yersinia pestis Nepal516
HLA-B*57:01 [18] = test: as above; conditions: source organism: Yersinia pestis Nepal516
HLA-B*51:01 = test: as above; conditions: source organism: Yersinia pestis Nepal516
HLA-B*46:01 [19] = test: as above; conditions: source organism: Yersinia pestis Nepal516
HLA-A*03:01 [20] = test: as above; conditions: source organism: Yersinia pestis Nepal516
[21] = source organism: Human immunodeficiency virus 1
[22] = source organism: Camelpox virus M-96
[23] = source organism: Taterapox virus
[24] = source organism: Yellow fever virus
[25] = source organism: Camelpox virus CMS
[26] = source organism: Giardia lamblia ATCC 50803
[27] = source organism: Yersinia pestis Nepal516

For FTYAPAGMY, the Kd (HLA-A*26:03) was 0.114 µM.

NTVATLYCV gave a Kd (HLA-A*02:03; [21]) of 0.0135 µM, a Kd (HLA-A*02:11; [21]) of 0.0007 µM and a Kd (HLA-A*02:01 [1]) of 0.215 µM. The Kd (HLA-A*69:01 [2]) was at most 0.001 µM, the Kd (HLA-A*02:19; [21]) was 0.0107 µM and the Kd (HLA-A*02:06) was at most 0.0001 µM.

Work on SYVFNFHKY yielded a Kd (HLA-B*08:01) of at least 20 µM, a Kd (HLA-B*15:01 [3]; [22]) of at least 20 µM and a Kd (HLA-B*08:02) of at least 20 µM. For the same sequence, the Kd (HLA-A*02:01 [4]; [22]) was at least 20 µM, the Kd (HLA-B*57:01 [5]; [22]) was at least 20 µM and the Kd (HLA-A*69:01 [6]; [22]) was at least 20 µM. For the same sequence, the Kd (HLA-B*07:02; [22]) was at least 20 µM, the Kd (HLA-A*01:01; [22]) was at least 20 µM and the Kd (HLA-A*24:03) was 0.055 µM. The Kd (HLA-A*31:01; [22]) was at least 20 µM, the Kd (HLA-B*58:01; [22]) was at least 20 µM and the Kd (HLA-A*68:02) was at least 20 µM. It also gave a Kd (HLA-A*26:02) of 4.09 µM, a Kd (HLA-A*11:01 [7]; [23]) of 2.55 µM and a Kd (HLA-B*18:01 [8]; [23]) of at least 20 µM. The Kd (HLA-B*15:17 [9]) was at least 20 µM.

In the case of FHERGYVKL, the Kd (HLA-A*29:02) is reported as at least 20 µM, the Kd (HLA-B*40:01; [24]) is reported as at least 20 µM and the Kd (HLA-B*15:01 [3]; [24]) is reported as at least 20 µM. The Kd (HLA-B*44:02) was at least 20 µM, the Kd (HLA-A*02:01 [4]; [24]) was at least 20 µM and the Kd (HLA-B*57:01 [5]; [24]) was at least 20 µM. It also gave a Kd (HLA-A*69:01 [6]; [24]) of at least 20 µM, a Kd (HLA-B*48:01; [24]) of at least 20 µM and a Kd (HLA-B*07:02; [24]) of at least 20 µM. The Kd (HLA-A*01:01; [24]) was at least 20 µM, the Kd (HLA-B*15:09; [24]) was 0.071 µM and the Kd (HLA-B*46:01 [10]; [24]) was at least 20 µM. For the same sequence, the Kd (HLA-A*11:01 [11]) was at least 20 µM, the Kd (HLA-B*18:01 [12]) was at least 20 µM and the Kd (HLA-A*31:01; [24]) was at least 20 µM. The Kd (HLA-B*27:05; [24]) was at least 20 µM, the Kd (HLA-A*03:01 [13]; [24]) was at least 20 µM and the Kd (HLA-B*58:01; [24]) was at least 20 µM.

Work on ITPTIYLLL yielded a Kd (HLA-C*15:02; source organism: Escherichia coli B7A) of 0.396 µM and a Kd (HLA-A*24:02) of 0.0007 µM.

For VSEKYTDMY, the Kd (HLA-B*39:01 [14]) was at least 20 µM, the Kd (HLA-B*40:01; [25]) was at least 20 µM and the Kd (HLA-B*15:01 [3]; [25]) was at least 20 µM. It also gave a Kd (HLA-A*02:01 [4]; [25]) of at least 20 µM, a Kd (HLA-B*57:01 [5]; [25]) of at least 20 µM and a Kd (HLA-A*69:01 [6]; [25]) of at least 20 µM. It also gave a Kd (HLA-B*48:01; [25]) of at least 20 µM, a Kd (HLA-A*01:01; [25]) of 0.0033 µM and a Kd (HLA-B*15:09; source organism: Variola virus) of at least 20 µM. For the same sequence, the Kd (HLA-B*46:01 [10]; [25]) was at least 20 µM, the Kd (HLA-B*15:17 [15]) was 0.126 µM and the Kd (HLA-A*31:01; [25]) was at least 20 µM. It also gave a Kd (HLA-B*27:05; [25]) of at least 20 µM, a Kd (HLA-A*03:01 [13]; [25]) of at least 20 µM and a Kd (HLA-B*58:01; [25]) of at least 20 µM. It also gave a Kd (HLA-A*11:01 [7]; source organism: Vaccinia virus) of at least 20 µM.

Sequence RAIREYFQF has a Kd (HLA-C*15:02; [26]) of 2.13 µM, a Kd (HLA-B*57:01 [5]; [26]) of 0.0477 µM and a Kd (HLA-B*58:01; [26]) of 0.005 µM.

With VSTAIAALF the Kd (HLA-C*15:02; source organism: Mycobacterium tuberculosis H37Ra) was 0.45 µM and the Kd (HLA-B*58:01; source organism: Mycobacterium tuberculosis) was 0.0284 µM.

In the case of SMLCWLGMT, the Kd (HLA-B*39:01 [16]) is reported as at least 20 µM, the Kd (HLA-A*02:03; [27]) is reported as at least 20 µM and the Kd (HLA-A*02:11; [27]) is reported as 0.0512 µM. It also gave a Kd (HLA-B*15:01 [17]) of at least 20 µM, a Kd (HLA-B*27:03) of at least 20 µM and a Kd (HLA-A*26:01) of at least 20 µM. For the same sequence, the Kd (HLA-A*02:12) was 0.577 µM, the Kd (HLA-B*57:01 [18]) was at least 20 µM and the Kd (HLA-A*02:19; [27]) was at least 20 µM. The Kd (HLA-B*51:01) was at least 20 µM, the Kd (HLA-B*46:01 [19]) was at least 20 µM and the Kd (HLA-B*18:01 [8]; [27]) was at least 20 µM. For the same sequence, the Kd (HLA-A*03:01 [20]) was at least 20 µM.
